Experiment [1] concerns the target T1, human calcitonin receptor (human, UniProt P30988 25-474).
T1 construct: whole, on cells; also called hCTR; hCT
T1 sequence (looked up): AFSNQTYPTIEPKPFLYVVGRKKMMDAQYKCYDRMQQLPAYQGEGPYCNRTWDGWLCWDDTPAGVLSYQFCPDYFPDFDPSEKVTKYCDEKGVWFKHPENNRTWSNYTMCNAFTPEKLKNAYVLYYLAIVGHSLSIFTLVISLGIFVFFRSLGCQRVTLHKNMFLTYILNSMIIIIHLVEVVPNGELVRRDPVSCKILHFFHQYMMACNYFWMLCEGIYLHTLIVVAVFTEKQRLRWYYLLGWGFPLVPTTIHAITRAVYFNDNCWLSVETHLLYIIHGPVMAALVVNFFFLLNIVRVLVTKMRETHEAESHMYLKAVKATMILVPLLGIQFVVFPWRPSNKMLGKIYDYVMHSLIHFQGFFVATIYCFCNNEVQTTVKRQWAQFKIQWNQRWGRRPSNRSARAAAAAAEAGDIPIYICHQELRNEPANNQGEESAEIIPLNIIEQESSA
As to the kind of experiment: ratio of binding IC50s: human calcitonin receptor over human amylin receptor (reference). An outline of the steps:
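Membranes (35 ng/μL final) + SPA beads, 50 mM Hepes pH 7.4 buffer with 1 mM CaCl2, 5 mM MgCl₂, 0.1% OA, 0.02% Tween20; 120 min, 25° C, shaking; centrifuged, counted; IC₅₀ by one-site binding competition.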

Experiment [2] addresses T2, rat calcitonin receptor (rat, UniProt P32214 25-516).
T2 construct: whole, on cells; also called rCTR; rat calcitonin (a) receptor
T2 sequence (looked up): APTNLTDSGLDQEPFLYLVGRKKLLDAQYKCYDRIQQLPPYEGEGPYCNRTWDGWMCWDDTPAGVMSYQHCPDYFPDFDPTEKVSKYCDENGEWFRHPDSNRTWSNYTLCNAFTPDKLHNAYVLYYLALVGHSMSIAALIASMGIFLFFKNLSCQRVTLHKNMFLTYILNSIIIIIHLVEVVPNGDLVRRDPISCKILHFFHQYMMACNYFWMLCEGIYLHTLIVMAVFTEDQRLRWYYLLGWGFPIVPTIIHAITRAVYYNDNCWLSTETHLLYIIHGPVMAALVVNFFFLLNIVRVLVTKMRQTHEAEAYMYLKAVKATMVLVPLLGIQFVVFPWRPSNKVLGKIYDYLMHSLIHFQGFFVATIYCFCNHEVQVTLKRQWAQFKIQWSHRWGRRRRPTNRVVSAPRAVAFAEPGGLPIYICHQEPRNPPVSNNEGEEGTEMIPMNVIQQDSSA
As to the kind of experiment: SPA competition with 125I-calcitonin, membranes of BHK cells with rat calcitonin receptor (Assay VIII).

The target in experiment [3] is T3, rat amylin receptor (rat calcitonin receptor + rat RAMP 3) (rat, UniProt P32214 25-516; Q9JJ73 23-147).
T3 construct: whole, on cells; also called rAmylin-R; rat amylin 3(a) receptor
T3 sequence (looked up) 1: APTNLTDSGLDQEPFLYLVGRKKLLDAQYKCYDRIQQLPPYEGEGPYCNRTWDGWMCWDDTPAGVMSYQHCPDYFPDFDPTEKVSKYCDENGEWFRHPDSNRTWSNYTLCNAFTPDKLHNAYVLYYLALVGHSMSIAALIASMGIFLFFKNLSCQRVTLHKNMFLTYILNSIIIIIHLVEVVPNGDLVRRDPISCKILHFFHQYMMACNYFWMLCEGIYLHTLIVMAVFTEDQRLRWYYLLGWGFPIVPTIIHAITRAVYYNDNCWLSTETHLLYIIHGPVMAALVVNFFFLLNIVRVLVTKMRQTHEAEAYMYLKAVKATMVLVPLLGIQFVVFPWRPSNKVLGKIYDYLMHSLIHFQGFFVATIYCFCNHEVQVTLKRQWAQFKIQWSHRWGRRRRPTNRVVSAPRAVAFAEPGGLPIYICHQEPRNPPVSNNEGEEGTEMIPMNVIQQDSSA
T3 sequence (looked up) 2: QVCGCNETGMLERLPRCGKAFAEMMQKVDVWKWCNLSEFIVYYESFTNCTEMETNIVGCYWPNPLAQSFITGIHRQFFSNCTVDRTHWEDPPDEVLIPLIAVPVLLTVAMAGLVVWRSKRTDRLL
The experiment in a line: SPA competition with 125I-rat amylin, membranes of BHK cells with rat calcitonin receptor + rat RAMP3 (Assay VI).

The target in experiment [4] is T2, rat calcitonin receptor. The experiment in a line: ratio of binding IC50s: rat calcitonin receptor over rat amylin receptor (reference).

The source of these data is US20140087995A1 (published 2014).

Numbered stars: 1 amine (or outer) side, 2 acyl side, 3 side chain; on linkers, the order of the positions; unused ones are H or OH. Bridge positions count the residues as written; N and C are the ends. Side chains are listed from the residue outwards. Ends that are not written are not given here. * marks the point of attachment. C20 diacid = O=C(O)CCCCCCCCCCCCCCCCCCC(=O)*; γGlu = O=C(O)[C@H](CCC(=O)[*:2])N[*:1]; AEEA = NCCOCCOCC(=O)O

As usually defined, the IC50 is the concentration needed to halve the response being measured.

B1: N^ε1-[2-[2-[2-[[(4S)-4-carboxy-4-(19-carboxynonadecanoylamino)butanoyl]amino]ethoxy]ethoxy]acetyl]-[Lys14,Arg17,Pro21,Pro27,Pro31]-h-amylin (peptide)
peptide: K([AEEA-γGlu-C20 diacid])CNTATCATQRLAKFLRHSSPNFGAIPSSTPVGSNTY-NH2
modifications: disulfide 2-7; N-terminus assumed
SMILES: CC[C@H](C)[C@H](NC(=O)[C@H](C)NC(=O)CNC(=O)[C@H](Cc1ccccc1)NC(=O)[C@H](CC(N)=O)NC(=O)[C@@H]1CCCN1C(=O)[C@H](CO)NC(=O)[C@H](CO)NC(=O)[C@H](Cc1c[nH]cn1)NC(=O)[C@H](CCCNC(=N)N)NC(=O)[C@H](CC(C)C)NC(=O)[C@H](Cc1ccccc1)NC(=O)[C@H](CCCCN)NC(=O)[C@H](C)NC(=O)[C@H](CC(C)C)NC(=O)[C@H](CCCNC(=N)N)NC(=O)[C@H](CCC(N)=O)NC(=O)[C@@H](NC(=O)[C@H](C)NC(=O)[C@@H]1CSSC[C@H](NC(=O)[C@@H](N)CCCCNC(=O)COCCOCCNC(=O)CC[C@H](NC(=O)CCCCCCCCCCCCCCCCCCC(=O)O)C(=O)O)C(=O)N[C@@H](CC(N)=O)C(=O)N[C@@H]([C@@H](C)O)C(=O)N[C@@H](C)C(=O)N[C@@H]([C@@H](C)O)C(=O)N1)[C@@H](C)O)C(=O)N1CCC[C@H]1C(=O)N[C@@H](CO)C(=O)N[C@@H](CO)C(=O)N[C@H](C(=O)N1CCC[C@H]1C(=O)N[C@H](C(=O)NCC(=O)N[C@@H](CO)C(=O)N[C@@H](CC(N)=O)C(=O)N[C@H](C(=O)N[C@@H](Cc1ccc(O)cc1)C(N)=O)[C@@H](C)O)C(C)C)[C@@H](C)O
notes: synthetic analogue of human amylin; also called compound 74
Consider B1, for which the “Ratio hCT/hAmylin binding” value in experiment [1] is 101. The results for the IC50 in experiment [2] and in experiment [3] were 0.109 µM and 0.00489 µM, respectively. For the same molecule, the “Ratio rCT/rAmylin binding” value in experiment [4] stood at 22.3.

B2: N^ε1-[2-[2-[2-[[(4S)-4-carboxy-4-(19-carboxynonadecanoylamino)butanoyl]amino]ethoxy]ethoxy]acetyl]-[Thr14,Arg17,Pro21,Pro27,Pro31]-h-amylin (peptide)
peptide: K([AEEA-γGlu-C20 diacid])CNTATCATQRLATFLRHSSPNFGAIPSSTPVGSNTY-NH2
modifications: disulfide 2-7; N-terminus assumed
SMILES: CC[C@H](C)[C@H](NC(=O)[C@H](C)NC(=O)CNC(=O)[C@H](Cc1ccccc1)NC(=O)[C@H](CC(N)=O)NC(=O)[C@@H]1CCCN1C(=O)[C@H](CO)NC(=O)[C@H](CO)NC(=O)[C@H](Cc1c[nH]cn1)NC(=O)[C@H](CCCNC(=N)N)NC(=O)[C@H](CC(C)C)NC(=O)[C@H](Cc1ccccc1)NC(=O)[C@@H](NC(=O)[C@H](C)NC(=O)[C@H](CC(C)C)NC(=O)[C@H](CCCNC(=N)N)NC(=O)[C@H](CCC(N)=O)NC(=O)[C@@H](NC(=O)[C@H](C)NC(=O)[C@@H]1CSSC[C@H](NC(=O)[C@@H](N)CCCCNC(=O)COCCOCCNC(=O)CC[C@H](NC(=O)CCCCCCCCCCCCCCCCCCC(=O)O)C(=O)O)C(=O)N[C@@H](CC(N)=O)C(=O)N[C@@H]([C@@H](C)O)C(=O)N[C@@H](C)C(=O)N[C@@H]([C@@H](C)O)C(=O)N1)[C@@H](C)O)[C@@H](C)O)C(=O)N1CCC[C@H]1C(=O)N[C@@H](CO)C(=O)N[C@@H](CO)C(=O)N[C@H](C(=O)N1CCC[C@H]1C(=O)N[C@H](C(=O)NCC(=O)N[C@@H](CO)C(=O)N[C@@H](CC(N)=O)C(=O)N[C@H](C(=O)N[C@@H](Cc1ccc(O)cc1)C(N)=O)[C@@H](C)O)C(C)C)[C@@H](C)O
notes: synthetic analogue of human amylin; also called compound 75
B2: in experiment [1], the “Ratio hCT/hAmylin binding” value amounted to 91.4. The IC50 in experiment [2] amounted to 0.442 µM; in experiment [3] it was 0.00403 µM. In experiment [4], the “Ratio rCT/rAmylin binding” value is 110.

B3: N^ε1-[2-[2-[2-[[(4S)-4-carboxy-4-(19-carboxynonadecanoylamino)butanoyl]amino]ethoxy]ethoxy]acetyl]-[Ser14,Arg17,Pro21,Pro27,Pro31]-h-amylin (peptide)
peptide: K([AEEA-γGlu-C20 diacid])CNTATCATQRLASFLRHSSPNFGAIPSSTPVGSNTY-NH2
modifications: disulfide 2-7; N-terminus assumed
SMILES: CC[C@H](C)[C@H](NC(=O)[C@H](C)NC(=O)CNC(=O)[C@H](Cc1ccccc1)NC(=O)[C@H](CC(N)=O)NC(=O)[C@@H]1CCCN1C(=O)[C@H](CO)NC(=O)[C@H](CO)NC(=O)[C@H](Cc1c[nH]cn1)NC(=O)[C@H](CCCNC(=N)N)NC(=O)[C@H](CC(C)C)NC(=O)[C@H](Cc1ccccc1)NC(=O)[C@H](CO)NC(=O)[C@H](C)NC(=O)[C@H](CC(C)C)NC(=O)[C@H](CCCNC(=N)N)NC(=O)[C@H](CCC(N)=O)NC(=O)[C@@H](NC(=O)[C@H](C)NC(=O)[C@@H]1CSSC[C@H](NC(=O)[C@@H](N)CCCCNC(=O)COCCOCCNC(=O)CC[C@H](NC(=O)CCCCCCCCCCCCCCCCCCC(=O)O)C(=O)O)C(=O)N[C@@H](CC(N)=O)C(=O)N[C@@H]([C@@H](C)O)C(=O)N[C@@H](C)C(=O)N[C@@H]([C@@H](C)O)C(=O)N1)[C@@H](C)O)C(=O)N1CCC[C@H]1C(=O)N[C@@H](CO)C(=O)N[C@@H](CO)C(=O)N[C@H](C(=O)N1CCC[C@H]1C(=O)N[C@H](C(=O)NCC(=O)N[C@@H](CO)C(=O)N[C@@H](CC(N)=O)C(=O)N[C@H](C(=O)N[C@@H](Cc1ccc(O)cc1)C(N)=O)[C@@H](C)O)C(C)C)[C@@H](C)O
notes: synthetic analogue of human amylin; also called compound 73
With B3, the “Ratio hCT/hAmylin binding” value in experiment [1] stood at 51.7. Besides, the IC50 in experiment [2] amounted to 0.0503 µM; in experiment [3], 0.000283 µM. Moreover, the “Ratio rCT/rAmylin binding” value in experiment [4] was 178.

B4: N^ε1-[(4S)-4-carboxy-4-(19-carboxynonadecanoylamino)butanoyl]-[Arg14,Arg17,Pro21,Pro27,Pro31]-h-amylin (peptide)
peptide: K([γGlu-C20 diacid])CNTATCATQRLARFLRHSSPNFGAIPSSTPVGSNTY-NH2
modifications: disulfide 2-7; N-terminus assumed
SMILES: CC[C@H](C)[C@H](NC(=O)[C@H](C)NC(=O)CNC(=O)[C@H](Cc1ccccc1)NC(=O)[C@H](CC(N)=O)NC(=O)[C@@H]1CCCN1C(=O)[C@H](CO)NC(=O)[C@H](CO)NC(=O)[C@H](Cc1c[nH]cn1)NC(=O)[C@H](CCCNC(=N)N)NC(=O)[C@H](CC(C)C)NC(=O)[C@H](Cc1ccccc1)NC(=O)[C@H](CCCNC(=N)N)NC(=O)[C@H](C)NC(=O)[C@H](CC(C)C)NC(=O)[C@H](CCCNC(=N)N)NC(=O)[C@H](CCC(N)=O)NC(=O)[C@@H](NC(=O)[C@H](C)NC(=O)[C@@H]1CSSC[C@H](NC(=O)[C@@H](N)CCCCNC(=O)CC[C@H](NC(=O)CCCCCCCCCCCCCCCCCCC(=O)O)C(=O)O)C(=O)N[C@@H](CC(N)=O)C(=O)N[C@@H]([C@@H](C)O)C(=O)N[C@@H](C)C(=O)N[C@@H]([C@@H](C)O)C(=O)N1)[C@@H](C)O)C(=O)N1CCC[C@H]1C(=O)N[C@@H](CO)C(=O)N[C@@H](CO)C(=O)N[C@H](C(=O)N1CCC[C@H]1C(=O)N[C@H](C(=O)NCC(=O)N[C@@H](CO)C(=O)N[C@@H](CC(N)=O)C(=O)N[C@H](C(=O)N[C@@H](Cc1ccc(O)cc1)C(N)=O)[C@@H](C)O)C(C)C)[C@@H](C)O
notes: synthetic analogue of human amylin; also called compound 63
Consider B4, for which the “Ratio hCT/hAmylin binding” value in experiment [1] worked out at 157. The 50% inhibitory concentration (IC50) in experiment [2] is 0.124 µM; in experiment [3] it was 0.00348 µM. Also, the “Ratio rCT/rAmylin binding” value in experiment [4] is 35.6.
